{
  "source": "paper doi:10.1101/2021.10.13.464316",
  "about": "(bioRxiv, 2021)",
  "binders": {"B1": {"name": "GST–CAR5 (natural protein)", "chain": "MIVSFLYFSSLFPTSLRKINLVAGEKHKDRRMKPSLMDSLLGLLRIRIKRGVNLAVRDLNSSDPYVVVKMAKQKLKTRVIYKNVNPEWNEDLTLSVSDPNLTVLLTVYDYDTFTKDDKMGDAEFGIKPFVNALKMHLHDLPSGTIVTTVQPSRDNCLAEESRVIWSDGKLVQDIVLRLRHVECGEVEAQLQWIDLPGKGL"}, "B2": {"name": "GST–CAR6 (natural protein)", "chain": "MEKTEEEVEMKELVGLVRILVKRGIDLARRDALSSDPFVVITMGPQKLKSFTVKNNCNPEWNEELTLAIEDPNEPVKLMVYDKDTFTADDKMGDAQIDMKPFLDVHKLGLKELPHGKELKRIVPTRDNCLSEDSIIVSDNGKIVQDMILLLKNVECGKVEIQLEWLKNPGGSGL"}, "B3": {"name": "GST–CAR9 (natural protein)", "chain": "MEDKPLGILRVHVKRGINLAIRDATTSDPYVVITLANQKLKTRVINNNCNPVWNEQLTLSIKDVNDPIRLTVFDKDRFSGDDKMGDAEIDFRPFLEAHQMELDFQKLPNGCAIKRIRPGRTNCLAEESSITWSNGKIMQEMILRLKNVECGEVELMLEWTDGPGCKGLGREGSKKTPWMPTKRLD"}, "B4": {"name": "GST–CAR9^3M (natural protein)", "chain": "B3 chain with T26A, S27A, Y30F"}, "B5": {"name": "GST–CAR10 (natural protein)", "chain": "MDQKPLGLLTIHVKRGINLAIRDHRSSDPYIVLNVADQTLKTRVVKKNCNPVWNEEMTVAIKDPNVPIRLTVFDWDKFTGDDKMGDANIDIQPYLEALKMGMELLRLPNGCAIKRVQPSRHNCLSDESSIVWNNGKITQDLILRLNNVECGEIEIMLEWHEGAGCRGITSSSKGGGSSST"}},
  "experiment_in_all_cases": "pull-down",
  "key": {"[1]": {"target": "6 × His-tagged FER–CD (Arabidopsis thaliana, UniProt Q9SCZ4 469-895)", "sequence (Q9SCZ4 469-895)": "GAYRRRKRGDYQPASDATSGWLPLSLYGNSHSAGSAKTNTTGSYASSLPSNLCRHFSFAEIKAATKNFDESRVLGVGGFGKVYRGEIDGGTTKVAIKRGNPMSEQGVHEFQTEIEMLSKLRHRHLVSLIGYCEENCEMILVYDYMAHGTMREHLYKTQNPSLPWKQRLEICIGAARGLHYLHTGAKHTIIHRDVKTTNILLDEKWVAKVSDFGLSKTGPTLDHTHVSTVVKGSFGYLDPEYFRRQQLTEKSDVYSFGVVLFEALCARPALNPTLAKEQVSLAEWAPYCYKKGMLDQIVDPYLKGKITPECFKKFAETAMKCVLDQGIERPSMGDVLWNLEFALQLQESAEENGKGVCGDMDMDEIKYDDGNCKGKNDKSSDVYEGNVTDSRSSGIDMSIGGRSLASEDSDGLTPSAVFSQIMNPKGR"}, "[2]": {"target": "T1, FER^K565R–CD–His (kinase dead form) (Arabidopsis thaliana, UniProt Q9SCZ4 469-895, K565R)", "T1 sequence (Q9SCZ4 469-895 K565R)": "as the sequence (Q9SCZ4 469-895) above, with K97R counted along it"}, "[3]": {"target": "FER–CD (+ ATP) treated with CIP (Arabidopsis thaliana, UniProt Q9SCZ4 469-895)", "sequence (Q9SCZ4 469-895)": "as the sequence (Q9SCZ4 469-895) above"}, "[4]": {"target": "T1, FER^K565R–CD–His (kinase dead form)", "remark": "listed apart in the source"}},
  "note": "Substitutions are numbered along the chain they refer to. Where two headings read alike, the source gives them in different places.",
  "data": [
    {"binder": "B1", "values": [
      {"measurement": "binding result", "setting": "[1]", "value": "binds"}
    ]},
    {"binder": "B2", "values": [
      {"measurement": "binding result", "setting": "[1]", "value": "binds"}
    ]},
    {"binder": "B3", "values": [
      {"measurement": "binding result", "setting": "[1]", "value": "binds"},
      {"measurement": "binding result", "setting": "[2]", "value": "binds"}
    ]},
    {"binder": "B4", "values": [
      {"measurement": "binding result", "setting": "[3]", "value": "binds"},
      {"measurement": "binding result", "setting": "[4]", "value": "binds"}
    ]},
    {"binder": "B5", "values": [
      {"measurement": "binding result", "setting": "[1]", "value": "binds"}
    ]}
  ]
}
